{
  "source": "paper PMC3376167",
  "about": "(The Journal of Physical Chemistry. B, 2012)",
  "proteins": {"B1": {"name": "HIF-1α PAS-B domain single mutant (R245E), construct 947 (domain or fragment)", "chain": "not shown"}},
  "molecular_target": "the molecule itself",
  "assay": "NMR 15N R2 relaxation",
  "data": [
    {"protein": "B1", "values": [
      {"measurement": "binding result", "value": "binds"}
    ]}
  ]
}
